In paper PMC8267817:

Biological target: T1, phosphorylated peptide CKATQA(p)SQEY corresponding to the C-terminal end of γ-H2AX (human)
T1 sequence (peptide, phosphoserine at S139 (7th letter of the printed peptide)): CKATQASQEY
Assay: SPR; Biacore T200, 25 °C, HBS-P (10 mM HEPES pH 7.4, 150 mM NaCl, 0.05% P20); phosphopeptide immobilised by thiol coupling of its N-terminal cysteine; VHH injected 120 s; Kd from equilibrium response fitted to a 1:1 model; fractional occupancy at saturating amounts (C6 180 nM, C6B 80 nM)

Kd: 11 nM
B1: C6 nanobody (purified, monovalent) (VHH)
VHH: DVQLVESGGGLVQAGDSLRLSCAASGLTFSRYAMGWFRQAPGNEREFVAVITASGRTTLYADSVKGRFTISRDNAKNTVALQMQSLKPEDTAVYYCAADYGTSRYTRRQSEYEYWGQGTQVTVSS
